From patent US20040213833A1 (published 2004)
Positions of bridges follow the written chain, without caps; N, C: chain ends. No end group written: not given here.

T1: MMP-2 (matrix metalloproteinase-2, gelatinase), purified enzyme (UniProt P08253 110-660, limits assumed)
T1 sequence (looked up): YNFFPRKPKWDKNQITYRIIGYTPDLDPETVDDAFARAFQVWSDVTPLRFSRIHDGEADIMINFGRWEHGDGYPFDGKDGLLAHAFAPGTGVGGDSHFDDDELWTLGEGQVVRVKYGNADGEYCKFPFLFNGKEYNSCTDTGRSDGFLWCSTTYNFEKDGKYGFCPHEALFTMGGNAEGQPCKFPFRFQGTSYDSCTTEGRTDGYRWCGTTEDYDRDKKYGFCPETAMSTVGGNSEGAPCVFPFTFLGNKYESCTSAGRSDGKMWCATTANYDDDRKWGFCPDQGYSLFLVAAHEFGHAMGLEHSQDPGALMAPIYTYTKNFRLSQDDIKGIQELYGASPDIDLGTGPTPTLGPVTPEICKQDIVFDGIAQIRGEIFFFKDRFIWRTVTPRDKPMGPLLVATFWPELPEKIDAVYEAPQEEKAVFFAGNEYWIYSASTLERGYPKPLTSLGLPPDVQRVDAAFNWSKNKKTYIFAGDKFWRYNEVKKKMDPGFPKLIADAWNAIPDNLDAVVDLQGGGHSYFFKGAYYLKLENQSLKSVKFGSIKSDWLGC


Columns and labels:
Assay in all cases: cell-based or functional assay
[1] = molecular target: T1, MMP-2 (matrix metalloproteinase-2, …)
[2] = molecular target: MMP-9 (matrix metalloproteinase-9, gelatinase), purified enzyme (UniProt P14780 107-707, limits assumed)
Sequence of MMP-9 (matrix metalloproteinase-9, gelatinase), purified enzyme (P14780 107-707 limits assumed): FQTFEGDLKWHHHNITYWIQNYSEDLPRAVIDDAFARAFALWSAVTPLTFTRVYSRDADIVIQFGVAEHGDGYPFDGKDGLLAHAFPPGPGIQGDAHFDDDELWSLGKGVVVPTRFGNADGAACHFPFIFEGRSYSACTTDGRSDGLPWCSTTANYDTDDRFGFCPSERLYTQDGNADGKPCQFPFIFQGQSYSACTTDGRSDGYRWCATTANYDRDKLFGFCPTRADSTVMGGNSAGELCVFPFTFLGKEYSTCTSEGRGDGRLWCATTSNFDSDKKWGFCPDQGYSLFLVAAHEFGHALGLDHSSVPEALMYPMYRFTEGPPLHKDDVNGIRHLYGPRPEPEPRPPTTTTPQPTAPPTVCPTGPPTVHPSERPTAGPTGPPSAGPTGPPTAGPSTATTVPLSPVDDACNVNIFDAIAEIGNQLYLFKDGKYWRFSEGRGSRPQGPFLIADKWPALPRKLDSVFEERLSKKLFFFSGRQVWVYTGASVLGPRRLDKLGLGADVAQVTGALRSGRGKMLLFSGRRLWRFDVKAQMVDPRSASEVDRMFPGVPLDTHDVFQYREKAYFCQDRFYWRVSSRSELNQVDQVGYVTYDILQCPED

[3] = molecular target: cell surface-bound gelatinases (of HT1080 cells)

Binder | inhibition of MMP-2 activity, casein zymography (area digested), peptide at 85 uM [1] [% inhibition] | IC50 of inhibition of MMP-9 activity, gelatinase assay with fluorogenic peptide substrate [2] [µM] | transfer of rhodamine B liposomes with CTT into HT1080 cells after preincubation with TIMP-2 (10 µg/ml) [3] [% inhibition]
CTTHWGFTLC (disulfide 1-10) [CTT peptide CTTHWGFTLC (cyclic, free in solution)] | ~70 | 8 | –
CTTHWGFTLC (disulfide 1-10; also: adsorbed non-covalently to POPC/POPE liposomes) [CTT peptide … bound to POPC/POPE (80/20 mol/mol) liposomes] | – | – | 50

The next lines start with the values.

inhibition of MMP-2 activity, casein zymography (area digested), peptide at 85 uM [1] [% inhibition] | IC50 of inhibition of MMP-9 activity, gelatinase assay with fluorogenic peptide substrate [2] [µM] | transfer of rhodamine B liposomes with CTT into HT1080 cells after preincubation with TIMP-2 (10 µg/ml) [3] [% inhibition] | Binder
50 | – | – | CLPGHWGFPSC (disulfide 1-11) [CLP peptide CLPGHWGFPSC]
~30 | – | – | STTHWGFTLC [STT peptide … (linear analog of CTT)]
– | 8 | – | CTTHWGFTLC (disulfide 1-10; also: adsorbed non-covalently to POPC/POPE liposomes) [CTT peptide CTTHWGFTLC bound to POPC/POPE (80/20 mol/mol) liposomes]
